± gives the half width of the 95% confidence interval.
Assays:
[1] = folding stability dG unfold from trypsin proteolysis; higher = more stable
Protocol: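 Folding stability of de novo designed mini-proteins (<80 aa, no Cys; designed by TrROS, TrMRF, ProteinMPNN and the joint model) was measured by cDNA display proteolysis with trypsin and chymotrypsin. Each protease was used at 11 concentrations in a threefold dilution series plus a no-protease condition. K50 was inferred by Bayesian fitting of sequencing counts, and dG unfold was derived against a sequence-predicted unfolded-state K50 (Tsuboyama et al. method). Sequences shown include variable-length N-terminal GS-type padding (SAGGSAGG...) inside a display construct carrying a PA tag. Rows were kept only if the AF2 dimer inter-PAE was >15, to exclude likely homo-oligomers.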

[2] = folding stability dG unfold (combined trypsin and chymotrypsin); higher = more stable
Method in brief: (§1)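 How resistant each design was to proteolysis was captured as K50, inferred by Bayesian fitting of sequencing counts. Unfolding free energy was then derived relative to a sequence-predicted unfolded-state K50 and a shared folded-state K50, per protease or combined. Digestion used trypsin and chymotrypsin at 11 threefold-diluted concentrations plus a no-protease condition, on mini-proteins under 80 residues without cysteine in a PA-tagged cDNA display construct. Designs were kept only when AlphaFold2 dimer inter-PAE was above 15.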

[3] = folding stability dG unfold from chymotrypsin proteolysis; higher = more stable
Method in brief: as §1

Sequence | folding stability dG unfold [1] [kcal/mol] | folding stability dG unfold [2] [kcal/mol] | folding stability dG unfold [3] [kcal/mol]
ADPDVKVEVEFEVLPDGRLRVTAVDPDTGVVVEVEAPVDGAGPVTVRVRVRVFDPETGEVSTFEAEFTLPLS [r1_45_TrMRF] | 3.71 ± 0.12 | 4.14 ± 0.17 | 4.33 ± 0.15
AFTITGIEVTYDPATNTVTVTATVTGPDGSTATVTLTLTLPAPPPPVTTVTRTETRTLPDGTTVTVTETFTS [r1_125_TrROS_Hall] | 2.21 ± 0.037 | 3.43 ± 0.13 | 4.09 ± 0.048
DDNQEYEYENPGGMKMRVEYNPSTGNMKVEMEPVPPVPPIPPIMIPLDLTPEQANRLINELQDLGIPIMVGS [r1_242_TrROS] | 0.906 ± 0.06 | 1.16 ± 0.16 | 1.33 ± 0.086
DTVTIVVEGMSEEEVLEKARAAAEELAKEGKTVEIVVKLSPEALKKAGVEKVEEVEDEETGLLVIKVEVKPS [r1_467_TrROS_Hall] | 1.04 ± 0.13 | 0.684 ± 0.28 | 0.599 ± 0.07
DVVIDIDELKKAIEKAKPGEVLELTVKVKDKATGKEYTVRVTVTVNPDGKTVTVTVVNEETGEVIETITLPS [r1_165_TrROS_Hall] | 3.94 ± 0.21 | > 6 | 5.23 ± 0.22
EEWYIIQIKIEYWGPNGKEREIDIMVLIPPEQMTPDQLKQVKEIAREIAENLQENGYNIEINVEIIPLDDMS [r1_221_TrROS] | 3.07 ± 0.26 | > 6 | 3.9 ± 0.23
EKKTLTVLIEVPPEKLEEALARALELAKALPPGQKLEIEIVNEDGTVVRVTVTVDENGEIHIDVEVLPRPPS [r1_350_TrROS_Hall] | 1.76 ± 0.073 | 2.23 ± 0.16 | 2.36 ± 0.16
ENYVAIEITMEMPNPDGMEMKFDLKIIKLDPDDGKFAIEMSMEMENPNGKPYRHPMWFVIPADELKEFLEAS [r1_371_TrROS] | 2.56 ± 0.22 | 3.54 ± 0.28 | 4.12 ± 0.12
GEFVSVESVERLPDGTLVVKIKYKPPSPDTPVTVTVSHPDSSVTFTMDPTSSTITVTVPPSVSDVSVTVVGS [r1_428_JUSTAS] | 2.6 ± 0.1 | 3.29 ± 0.093 | 3.58 ± 0.12
GENVPPKTVTVSAPVDPTTGRVTVNPGNTTVSISLPDGADVTLSFSTSMSEEEQLAFVEKEAAALNAALAAS [r1_25_JUSTAS] | 1.64 ± 0.027 | 1.18 ± 0.048 | 0.443 ± 0.055
SADKIKIPPGFQIFGPNGQPIRPGTEVEVEDIEPHPGGGEFMFEVKIKSPDDGEEHNWPIMIRFPPAGKSAG [r14_258_TrROS] | 0.755 ± 0.13 | – | -0.395 ± 0.24
SAGGDPAPLEVDIEMDPDNGRIRIEIRAGGSKVIYEYEIPLDGYEFKVKIIVVDGKIVIEIEFEMPDSAGGS [r16_631_TrROS] | 4.27 ± 0.55 | – | 3.81 ± 0.27
SAGGKRKIMIPMDEMEEKFGIPPNQTVEELAKYINPNYKIEVDNVRYEKDENGKERYWVKVEIEPPKDSAGG [r13_723_TrROS] | 0.739 ± 0.25 | – | -0.136 ± 0.61
SAGGSAGGKKKKPPPLVVVKIEITNPNGEKKELTLVFPSLEDAKAAIEALLPPGYTAKVEIKPLSAGGSAGG [r6_289_TrROS_Hall] | 3.16 ± 0.35 | – | 3.69 ± 0.37
SAGGSAGGSAGEEEVEPPPEVVVRVRFFDKDGKEVLEVEMSLDELRALAEAGLVEVELEPSAGGSAGGSAGG [r11_159_TrROS_Hall] | 2.97 ± 0.25 | – | 2.63 ± 0.33
SAGGSAGGSAGGGKYRLKLRFTFTNAAGGSSELELEVEIEIPPPPLIAPDADGHWYSLTSAGGSAGGSAGGS [r10_330_TrMRF] | 3.86 ± 0.27 | – | 5.31 ± 0.65
SAGVEELAEKIAKELEGEDFEVEAEVDPEKGTITVVVKTPDYVVVKEIYIDPKNDKPVMDVKVFKPNESAGG [r19_2_TrMRF] | 0.241 ± 0.059 | -0.954 ± 0.7 | –
SAGWRRIPPGRPIRIRLKGNGEEITIPIPEGAEVEPDPDNNNVMIWFREDGKEWSMNFKNGRIDDIEPVSAG [r5_22_TrROS] | -0.194 ± 0.32 | < -1 | –
SALPPEEVKKLARDIMREFNPDNGFKPEDVDVDPNEGTIMVDWRMPDPNGKRHRMPFQIQVDKDGKIKISAG [r14_183_TrROS] | -0.306 ± 0.36 | < -1 | –
SAMTLTVPPSLSATDAAGNAIPPSLSIEVEKVTPLPETGKVVAEVKITDPETGETTTRPLTITLPPGEASAG [r14_258_JUSTAS] | 0.827 ± 0.048 | 0.506 ± 0.19 | –

Sequence | folding stability dG unfold [1] [kcal/mol] | folding stability dG unfold [2] [kcal/mol] | folding stability dG unfold [3] [kcal/mol]
SDILERAAEKGVDEIHIMLQPNQIELIKRLQDRGAKIEIHFPPGVPKEYLKKLPGFKVDKVEWMPPDDMPSA [r9_671_TrROS] | -0.928 ± 0.56 | < -1 | –
SDVNIKPEKVDPNGIFTVEIPVDNNNVDKLREIINEIFPNFEPTEVKPNPESGYHEIIMRVPDGKAFEFSSA [r9_1164_TrROS] | -0.141 ± 0.04 | -0.55 ± 0.14 | –
SEEIAKKIADELKKAGYEVVKVEVTYDKETKKVTIKIVVKDKKTNEYYKITIKLNEETGEIVEVKIEKLPSA [r9_814_TrROS_Hall] | 2.96 ± 0.42 | – | 4.14 ± 0.41
SGMTTSLGKSTTTTLPDGTTVKTEVKLTRPSSGTVVVTTDTTTVTPGTGTTTTTPTTTVVPVPPGVPGLLSA [r9_709_JUSTAS] | -0.522 ± 0.051 | < -1 | –
SGNSLNEKGESYPITVKAPDPNVTPEQVKAALEKAGAKVLEIKRPPKGSTLTVSVEITDPEKVKEAFEKLSA [r9_1154_JUSTAS] | -1.05 ± 0.44 | < -1 | –
SGSPSTPVTITVEFPPRLTTVLYREPTRPPLGYLLVPEPSRTETITVPVSEVAAVKAELEPRGMTVTVTASA [r9_167_JUSTAS] | -0.69 ± 0.33 | < -1 | –
SITASAKHPEEAIELAEKLKKELEKLLGPDTKVPITLYDDKGNPATFPITLKKKKPKVIYDPEKGLYRDESA [r9_596_TrMRF] | 0.042 ± 0.25 | -0.332 ± 0.55 | –
SKITITIEEEEVEVNGKKYKVFKVTATVTVTEYKFKDGKLVEKKTKTKTITVRIVLDKNGKIVKIEPLPDSA [r9_829_TrROS_Hall] | 4.33 ± 0.32 | > 6 | –
SKMKIKIEITEVYPEGKTIVVKAEIEIDGKTIEMEMTIKLPNGEEYRIRMRFVRRKDGRLEMEIEVEKLPSA [r9_255_TrROS_Hall] | 5.33 ± 0.51 | > 6 | –
SKVLELLKELAKKLGATITEVKVEKLEDGTVKVTATITVTYLDKNGKPVKTETLTLTITVKNGKITEIKLSA [r9_519_TrROS_Hall] | 4.66 ± 0.55 | > 6 | –
SMGLTKKERVITIVKEAYAKNPDKKITLRYADIEATTPEKMSAEEIEKLLKEVTGIKDIKIYPVKPDDPESA [r9_738_TrMRF] | 0.0464 ± 0.25 | < -1 | –
SMKALVLELPEEKVVVVFETDELKVVPIPVKDKEEAKEKIEELVKELEEETGKKPEVVVVEVDEDEELPVSA [r9_786_TrMRF] | -0.0691 ± 0.16 | < -1 | –
SMKIKITAKTEEEREKAKKLLEEIAKELNIEIKIEKIEVIPKPKPEKVELSEEEKKKLKELEEEGLIEEESA [r9_472_TrROS_Hall] | 0.578 ± 0.059 | < -1 | –
SMKKTLTEKIEGVLPEEEAERYLEEYIASRPWAEKVEVKPEIKPIFDEKGNKLVKVKTTITVTISEEKLKSA [r9_1006_JUSTAS] | -0.776 ± 0.95 | < -1 | –
SNPWQIKFRNPNRPVEIPIQMNPDDGYVGISVRMRKPGKPKTHTITYKVKNIEDLLDHLEDLPPGFEIEPSA [r9_713_TrROS] | 0.435 ± 0.27 | -0.0771 ± 0.45 | –
SPAVRPLSAEFYDPRYTVEAPVYESEEGEPVLNIRFLVPEYELEIPFPLEDPEAVFESFAEDGVSLTLTDSA [r9_384_TrMRF] | 0.0201 ± 0.088 | -0.723 ± 0.17 | –
SPIVTDLPPKEATRVEVEALVEELEAKGEPPREVVVYDPSRGVPLATIPVTSREELLAAVEAGRPFRVLLSA [r9_718_JUSTAS] | -0.697 ± 0.31 | < -1 | –
SSVITNKGSLTITKTTLPDGTVVITITDPNGGRTTTITIPADSDGEATVTPTGSGNAATSTIPVSSLKLSSA [r9_1071_JUSTAS] | 0.505 ± 0.096 | 0.183 ± 0.21 | –
VEFEEIETTFTLAAPGGSLVDVDLKTTKKDPKNGKVYIEGTLTTVDPGGVPRTLPTKRVVSPEELKQLVSES [r1_371_JUSTAS] | 0.143 ± 0.19 | -0.318 ± 0.49 | –

Reference: the supplement of paper PMC12764529
